In article PMC3829167, “Directed Evolution of an Angiopoietin-2 Ligand Trap by Somatic Hypermutation and Cell Surface Display*” (The Journal of Biological Chemistry, 2013):

T1: human angiopoietin 1 (human, UniProt Q15389 16-498)
T1 construct: human angiopoietin 1 (Ang1), recombinant protein from R&D Systems; in the other experiments it was detected with anti-Ang1 or immobilised; also called Ang1; source: bought: R&D Systems
T1 sequence (looked up): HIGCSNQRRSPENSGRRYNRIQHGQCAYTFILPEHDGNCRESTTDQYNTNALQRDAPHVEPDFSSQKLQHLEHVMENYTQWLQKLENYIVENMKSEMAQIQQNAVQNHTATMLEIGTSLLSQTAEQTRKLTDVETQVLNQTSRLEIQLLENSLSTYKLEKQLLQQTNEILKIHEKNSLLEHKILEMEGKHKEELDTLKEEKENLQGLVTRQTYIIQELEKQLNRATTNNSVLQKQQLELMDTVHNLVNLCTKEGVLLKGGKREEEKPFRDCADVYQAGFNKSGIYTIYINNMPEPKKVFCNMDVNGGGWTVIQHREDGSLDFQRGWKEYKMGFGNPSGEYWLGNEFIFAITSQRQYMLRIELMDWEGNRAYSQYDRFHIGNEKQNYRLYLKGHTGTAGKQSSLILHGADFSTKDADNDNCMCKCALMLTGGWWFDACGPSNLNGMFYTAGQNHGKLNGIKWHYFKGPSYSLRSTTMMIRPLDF

T2: human angiopoietin 2 (human, UniProt O15123 19-496)
T2 construct: human angiopoietin 2 (Ang2), recombinant protein from R&D Systems; also called Ang2; source: bought: R&D Systems
T2 sequence (looked up): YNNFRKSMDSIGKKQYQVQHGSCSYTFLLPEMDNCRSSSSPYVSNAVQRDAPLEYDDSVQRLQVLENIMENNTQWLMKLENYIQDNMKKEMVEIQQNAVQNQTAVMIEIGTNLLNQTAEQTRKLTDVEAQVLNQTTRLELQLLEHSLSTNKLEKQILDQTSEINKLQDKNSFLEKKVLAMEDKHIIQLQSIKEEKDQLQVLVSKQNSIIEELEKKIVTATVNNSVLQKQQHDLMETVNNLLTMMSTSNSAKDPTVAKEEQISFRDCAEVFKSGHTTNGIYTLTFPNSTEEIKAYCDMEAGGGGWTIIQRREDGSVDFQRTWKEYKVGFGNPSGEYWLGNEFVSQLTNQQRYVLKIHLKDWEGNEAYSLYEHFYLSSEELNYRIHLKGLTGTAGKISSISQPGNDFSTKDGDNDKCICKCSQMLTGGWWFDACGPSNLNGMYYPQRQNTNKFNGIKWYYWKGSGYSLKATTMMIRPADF


Legend:
[1] = target: T1, human angiopoietin 1; experiment: ELISA; 5 μg/ml Ang1 or Ang2 immobilised in 96-well plates; blocked with TBS, 1 mg/ml BSA, 0.1% Triton-X 100; ectodomain-Fc fusion protein bound for 1 h at different concentrations, detected with anti-Tie2 ectodomain antibodies; saturation binding curves fitted by nonlinear regression; conditions: both partners purified
[2] = target: T2, human angiopoietin 2; experiment: as above; conditions: both partners purified

Binder | Max binding (% of WT) [1] | Max binding (% of WT) [2]
soluble Tie2 ectodomain (1-442)-Fc fusion protein with F161I substitution (Fc fusion, human, UniProt Q02763 23-442, looked up, signal peptide in the construct; human Tie2 ectodomain, residues 1-442, F161I; also called F/I; F161I ectodomain; source: HEK293 cells, transfected, secreted, purified (nickel-nitrilotriacetic acid chromatography); not shown: Fc (human), C-terminal, kept) AMDLILINSLPLVSDAETSLTCIASGWRPHEPITIGRDFEALMNQHQDPLEVTQDVTREWAKKVVWKREKASKINGAYFCEGRVRGEAIRIRTMKMRQQASFLPATLTMTVDKGDNVNISFKKVLIKEEDAVIYKNGSIIHSVPRHEVPDILEVHLPHAQPQDAGVYSARYIGGNLFTSAFTRLIVRRCEAQKWGPECNHLCTACMNNGVCHEDTGECICPPGFMGRTCEKACELHTFGRTCKERCSGQEGCKSYVFCLPDPYGCSCATGWKGLQCNEACHPGFYGPDCKLRCSCNNGEMCDRFQGCLCSPGWQGLQCEREGIQRMTPKIVDLPDHIEVNSGKFNPICKASGWPLPTNEEMTLVKPDGTVLHPKDFNHTDHFSVAIFTIHRILPPDSGVWVCSVNTVAGMVEKPFNISVK | 97.8 % of WT | 90.5 % of WT
soluble evolved (R3) Tie2 ectodomain (1-442)-Fc fusion protein (Fc fusion, human, UniProt Q02763 23-442, looked up, signal peptide in the construct; human Tie2 ectodomain, residues 1-442, with F161I and the deletion of Arg-167/His-168 introduced by site-directed mutagenesis; The changes were found by directed evolution and put into m3 by site-directed mutagenesis; also called evolved ectodomain; R3 ectodomain; source: HEK293 cells, transfected, secreted, purified (nickel-nitrilotriacetic acid chromatography); …) AMDLILINSLPLVSDAETSLTCIASGWRPHEPITIGRDFEALMNQHQDPLEVTQDVTREWAKKVVWKREKASKINGAYFCEGRVRGEAIRIRTMKMRQQASFLPATLTMTVDKGDNVNISFKKVLIKEEDAVIYKNGSIIHSVPEVPDILEVHLPHAQPQDAGVYSARYIGGNLFTSAFTRLIVRRCEAQKWGPECNHLCTACMNNGVCHEDTGECICPPGFMGRTCEKACELHTFGRTCKERCSGQEGCKSYVFCLPDPYGCSCATGWKGLQCNEACHPGFYGPDCKLRCSCNNGEMCDRFQGCLCSPGWQGLQCEREGIQRMTPKIVDLPDHIEVNSGKFNPICKASGWPLPTNEEMTLVKPDGTVLHPKDFNHTDHFSVAIFTIHRILPPDSGVWVCSVNTVAGMVEKPFNISVK | 3 % of WT | 59.4 % of WT
soluble Tie2 ectodomain (1-442)-Fc fusion protein with the double Arg-167/His-168 deletion (Fc fusion, human, UniProt Q02763 23-442, looked up, signal peptide in the construct; human Tie2 ectodomain, residues 1-442, Arg-167 and His-168 deleted; also called ΔRH; ΔArg-167/His-168; source: HEK293 cells, transfected, secreted, purified (nickel-nitrilotriacetic acid chromatography); not shown: Fc (human), C-terminal, kept) AMDLILINSLPLVSDAETSLTCIASGWRPHEPITIGRDFEALMNQHQDPLEVTQDVTREWAKKVVWKREKASKINGAYFCEGRVRGEAIRIRTMKMRQQASFLPATLTMTVDKGDNVNISFKKVLIKEEDAVIYKNGSFIHSVPEVPDILEVHLPHAQPQDAGVYSARYIGGNLFTSAFTRLIVRRCEAQKWGPECNHLCTACMNNGVCHEDTGECICPPGFMGRTCEKACELHTFGRTCKERCSGQEGCKSYVFCLPDPYGCSCATGWKGLQCNEACHPGFYGPDCKLRCSCNNGEMCDRFQGCLCSPGWQGLQCEREGIQRMTPKIVDLPDHIEVNSGKFNPICKASGWPLPTNEEMTLVKPDGTVLHPKDFNHTDHFSVAIFTIHRILPPDSGVWVCSVNTVAGMVEKPFNISVK | 0.29 % of WT | 0.58 % of WT
